From the supplement of paper PMC10724198
± gives the standard deviation of the averaged measurements.

System: Saccharomyces cerevisiae
Assay: protein stability index of tFT-peptide fusion (C-terminal peptide) (PSI (0-1 scale)); higher = more stable (slower turnover)
Details: genetic background: wild type; temperature: 30 C
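Further: PSI is a weighted mean of sequencing reads over stability bins, variants kept only with over 10 reads, mCherry proximal and sfGFP distal, peptide attached via GGGS linker.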

Row | Sequence | protein stability index
1 | PFSVCVSSSLCG | 0.665 ± 0.0076
2 | PFTHRTYREGRT | 0.676 ± 0.081
3 | PFVIFHSCFSLV | 0.543 ± 0.011
4 | PGALLPALPPPP | 0.71 ± 0.016
5 | PGFTLLDFCLYH | 0.725 ± 0.0091
6 | PGFVGPWAGGGA | 0.735 ± 0.12
7 | PGGAGKAYGSRL | 0.707 ± 0.012
8 | PGGLVVGAGRED | 0.709 ± 0.033
9 | PGIAVPTGTSYV | 0.617 ± 0.06
10 | PGIVTGCGNTFV | 0.708 ± 0.022
11 | PGNKHYRARNGA | 0.678 ± 0.013
12 | PGPKAAHSKRDR | 0.662 ± 0.058
13 | PGPPFPMANTPF | 0.646 ± 0.048
14 | PGRVAGGCGVLG | 0.64419 ± 0.00049
15 | PGRYTDCCLPNR | 0.682 ± 0.022
16 | PGSLRGATRPNQ | 0.739 ± 0.17
17 | PGTVQVGFDIQV | 0.717 ± 0.018
18 | PGWHLDPITALP | 0.712 ± 0.027
19 | PHAEESNSTLSP | 0.765 ± 0.12
20 | PHLAPPPGPLHP | 0.7233 ± 0.0024
21 | PHLEVPARPRGT | 0.7148 ± 0.0042
22 | PHLPSPRPRPPP | 0.722 ± 0.012
23 | PHMRSPTPLLRP | 0.697 ± 0.077

Row | Sequence | protein stability index
24 | PHNPTFSPPTCP | 0.751 ± 0.027
25 | PHPAPRRPPLPP | 0.687 ± 0.05
26 | PHPRHQPNLRPT | 0.664 ± 0.024
27 | PHPRPPPLSFAP | 0.681 ± 0.035
28 | PHPSPRGTPCPT | 0.646 ± 0.021
29 | PHRPSPPIPLSV | 0.662 ± 0.043
30 | PHRSRPPPTPPV | 0.625 ± 0.061
31 | PHSSSLSPCPSL | 0.687 ± 0.013
32 | PHTHPPASLPPV | 0.638 ± 0.033
33 | PHWGKRINEAHT | 0.6851 ± 0.0029
34 | PHYPQSHPADPV | 0.668 ± 0.016
35 | PIATTSVDAGRS | 0.634 ± 0.019
36 | PICCPLILTRSL | 0.706 ± 0.019
37 | PIHCTVMGATTC | 0.657 ± 0.073
38 | PIPPLPSSRLGV | 0.602 ± 0.037
39 | PIPRAASPLLPM | 0.588 ± 0.007
40 | PISAGGGVVWVE | 0.6491 ± 0.0047
41 | PITSPPQVLLQH | 0.686 ± 0.033
42 | PKTKKEKQKKKV | 0.704 ± 0.034
43 | PLCVFHYSSDDY | 0.705 ± 0.054
44 | PLESRPHNAHQR | 0.663 ± 0.09
45 | PLFAPLTPPLPP | 0.734 ± 0.033
46 | PLFLHSAHVSPI | 0.712 ± 0.071

Row | Sequence | protein stability index
47 | PLFPPASVVVLY | 0.663 ± 0.036
48 | PLFSASLFSLSL | 0.747 ± 0.068
49 | PLFSPPFLPFSL | 0.711 ± 0.028
50 | PLGQVLRVSSDF | 0.75473 ± 0.00037
51 | PLGVGLVDGEAP | 0.715 ± 0.072
52 | PLHPPPPPPPHP | 0.717 ± 0.064
53 | PLHSLPSRTPPS | 0.7088 ± 0.006
54 | PLHSTPRPPAPG | 0.706 ± 0.098
55 | PLIDRKIKKAIQ | 0.705 ± 0.069
56 | PLISYIEGGPTS | 0.674 ± 0.02
57 | PLLAQSALFVIA | 0.5904 ± 0.0055
58 | PLLHPTGFMGFP | 0.74 ± 0.028
59 | PLLLLLPPPPSP | 0.674 ± 0.033
60 | PLLLPPLPRTPF | 0.622 ± 0.0066
61 | PLLPLSFRIPPF | 0.702 ± 0.014
62 | PLLPPALCPFPP | 0.685 ± 0.029
63 | PLLPPPGALFLL | 0.718 ± 0.057
64 | PLLPSFPPPPAP | 0.51 ± 0.014
65 | PLLPSGIPLFLS | 0.574 ± 0.016
66 | PLLRLVPVPSVI | 0.5537 ± 0.0025
67 | PLLSAFPPRPFP | 0.682 ± 0.12
68 | PLLSSPAHPLPP | 0.687 ± 0.053
69 | PLMKHSHSSLPF | 0.7016 ± 0.0043

Row | Sequence | protein stability index
70 | PLPEQIEATTAS | 0.6921 ± 0.00086
71 | PLPFPPPLPSHR | 0.767 ± 0.11
72 | PLPHPPRPLPPH | 0.717 ± 0.015
73 | PLPLLSLPRFPL | 0.753 ± 0.1
74 | PLPLPFGPPSLP | 0.753 ± 0.15
75 | PLPLPLPQTLPP | 0.6958 ± 0.0067
76 | PLPLPPPFILPT | 0.646 ± 0.052
77 | PLPPHAPPNSAP | 0.656 ± 0.079
78 | PLPPIPPSTPST | 0.726 ± 0.017
79 | PLPPLPPTAPPP | 0.686 ± 0.015
80 | PLPPLSSPRPPP | 0.711 ± 0.071
81 | PLPPPGPPRLSR | 0.723 ± 0.0075
82 | PLPPPHSPPPSA | 0.677 ± 0.011
83 | PLPPPPPLPFHL | 0.79 ± 0.095
84 | PLPPPPPPPPPT | 0.681 ± 0.023
85 | PLPPPPPPPSPS | 0.835 ± 0.11
86 | PLPPPPRPPLRP | 0.6941 ± 0.0052
87 | PLPPPSPSTPPP | 0.796 ± 0.065
88 | PLPPPVFLLFPL | 0.667 ± 0.051
89 | PLPPRPCCLPRP | 0.644 ± 0.098
90 | PLPRAPSPPPPP | 0.694 ± 0.023
91 | PLPRFLTLTLSQ | 0.652 ± 0.023
92 | PLPRLPSSLSRP | 0.697 ± 0.023

Row | Sequence | protein stability index
93 | PLPSARPPPLPS | 0.685 ± 0.011
94 | PLPSLPPPPPPL | 0.661 ± 0.076
95 | PLPSPDLPLTHH | 0.679 ± 0.025
96 | PLPSPRLRFLVP | 0.653 ± 0.036
97 | PLPSVPESPAPP | 0.693 ± 0.045
98 | PLRAPPHPPPVP | 0.623 ± 0.048
99 | PLRPPCPLPPRT | 0.6031 ± 0.0056
100 | PLRPQALDPFLY | 0.6835 ± 0.0028
101 | PLRPSSPLPPPL | 0.71 ± 0.021
102 | PLSNAPRPSQVA | 0.736 ± 0.056
103 | PLSPPHRLTAAL | 0.756 ± 0.19
104 | PLSPPPPPPPPL | 0.707 ± 0.018
105 | PLSPSCCLRRPL | 0.777 ± 0.24
106 | PLSPSLPNPCSL | 0.706 ± 0.0079
107 | PLSPSPPPASLL | 0.702 ± 0.018
108 | PLSPTSPLPSPA | 0.6779 ± 0.0039
109 | PLSQLPAFSPVS | 0.687 ± 0.0095
110 | PLSTPPPLLLTP | 0.719 ± 0.12
111 | PLSYRRFTRLPR | 0.68 ± 0.066
112 | PLTEELCFSAWG | 0.734 ± 0.031
113 | PLTFSFPVRVCD | 0.537 ± 0.028
114 | PLTPPPALILFP | 0.693 ± 0.022
115 | PLTPSPRPPPPS | 0.615 ± 0.15

Row | Sequence | protein stability index
116 | PLTVPLPSPRLI | 0.645 ± 0.1
117 | PLVPRCFVPPVI | 0.657 ± 0.023
118 | PLWCLPSLPPPF | 0.797 ± 0.031
119 | PLWEYGCLFASS | 0.718 ± 0.03
120 | PLWLPPTPMQII | 0.62 ± 0.013
121 | PLYHPSESYNPA | 0.678 ± 0.016
122 | PLYSLVSPPYAT | 0.651 ± 0.019
123 | PMLSDVPTHSIS | 0.719 ± 0.039
124 | PMPPPHLLPSSS | 0.723 ± 0.024
125 | PMSPCPTRSINA | 0.702 ± 0.031
126 | PMVLLDTIQRHT | 0.721 ± 0.033
127 | PNHGEYRNGLYV | 0.715 ± 0.11
128 | PNLKKHFRADEP | 0.6832 ± 0.0036
129 | PNLSPPTPLSAD | 0.649 ± 0.018
130 | PPAAAPPSPPPL | 0.663 ± 0.0036
131 | PPAAPPPQPHLT | 0.696 ± 0.032
132 | PPAEPLRLHAHA | 0.709 ± 0.054
133 | PPALRSPCPSHP | 0.747 ± 0.14
134 | PPAPLAPPPAGC | 0.67 ± 0.038
135 | PPAPLPQSAPTR | 0.645 ± 0.038
136 | PPAPPLFVSSPG | 0.684 ± 0.048
137 | PPAPPPRLPSPP | 0.713 ± 0.098
138 | PPAPSPPPPPPP | 0.622 ± 0.055

Row | Sequence | protein stability index
139 | PPAPYPPFPLEL | 0.821 ± 0.078
140 | PPCLYPFPPPSR | 0.661 ± 0.017
141 | PPCPPPPPVLPT | 0.66722 ± 0.00014
142 | PPDAPPMPPPQH | 0.738 ± 0.083
143 | PPDYPAPPPPPL | 0.695 ± 0.034
144 | PPEPSYPPLPPR | 0.717 ± 0.011
145 | PPGPPPPPAPPL | 0.724 ± 0.062
146 | PPGVTPLSLCAC | 0.534 ± 0.0088
147 | PPHAPKPPPTAA | 0.588 ± 0.077
148 | PPHLSPPPPPLL | 0.6987 ± 0.0054
149 | PPHPFPPPPPPS | 0.665 ± 0.069
150 | PPHPHNPRPSTP | 0.6548 ± 0.0046
151 | PPHPPPLLPFSI | 0.764 ± 0.009
152 | PPIFPSPPPPAD | 0.61 ± 0.011
153 | PPILLAYITPPM | 0.656 ± 0.0076
154 | PPIRLPSPLLPH | 0.7123 ± 0.0056
155 | PPKPAQPPTPSP | 0.693 ± 0.075
156 | PPLAPPTPHPLS | 0.716 ± 0.029
157 | PPLEHPGIAGGR | 0.644 ± 0.1
158 | PPLFPPLAPLHR | 0.72 ± 0.032
159 | PPLFSSTNKNPR | 0.664 ± 0.0076
160 | PPLLAPPTPLPQ | 0.674 ± 0.051
